# In publication PMC11208146, “Molecular basis for transposase activation by a dedicated AAA+ ATPase” (Nature, 2024):
# Several values for one entry are separate records, joined by “and”; a condition that tells them apart may be missing. Equal values may be shown once.
# Assays:
# [1] = target: the molecule itself; experiment: cryo-EM structure; IstB wild type with a 60-mer duplex DNA (6.5:1) and 1 mM ATP; 20 mM HEPES pH 7.5, 150 mM NaCl, 5 mM MgCl2, 1 mM DTT; 3.2 Å
# [2] = target: the molecule itself; experiment: cryo-EM structure; IstA pre-incubated with strand-transfer-complex DNA (3.3:1), then IstB E167Q (5:1 to IstA), 37 °C; 20 mM HEPES pH 7.5, 150 mM NaCl, 5 mM MgCl2, 1 mM ATP, 1 mM DTT; 3.6 Å
Protein,stoichiometry N [1],stoichiometry N [2]
"IstB ATPase, wild type, full length (IS5376, Geobacillus stearothermophilus) (enzyme, UniProt Q45619 1-251, looked up, IstB, AAA+ ATPase of the IS21 family member IS5376, Geobacillus stearothermophilus, full length; Tag cleaved on-column with PreScission protease; Assembles into a pentamer of dimers (decamer) on DNA with ATP; also called IstB WT; IstB AAA+ ATPase regulator; source: E. coli BL21 codon-plus (DE3) RIL, purified (Ni-Sepharose, amylose resin, gel filtration); not shown: His6, N-terminal, cleaved; MBP, …) MKERIHEYCHRLHLPVMAERWSAMAEYASTHNISYSEFLFRLLEAEIVEKQARSIQTLIKLSKLPYRKTIDTFDFTAQPSVDERRIRELLTLSFIDRKENILFLGPPGIGKTHLAISIGMEAIARGYKTYFITAHDLVNQLRRADQEGKLEKKLRVFVKPTVLIIDEMGYLKLDPNSAHYLFQVIARRYEHAPIILTSNKSFGEWGEIVGDSVLATAMLDRLLHHSIIFNLKGESYRLREKRLQEEKQKDQ",10 and 8,
"IstB E167Q (Walker B mutant) (enzyme, Geobacillus stearothermophilus, UniProt Q45619 1-251, looked up, IstB, AAA+ ATPase of IS5376, Geobacillus stearothermophilus, with the Walker B mutation E167Q; The methods describe only the purification of full-length IstB (His6-MBP tag, cleaved); also called WB; source: purified) MKERIHEYCHRLHLPVMAERWSAMAEYASTHNISYSEFLFRLLEAEIVEKQARSIQTLIKLSKLPYRKTIDTFDFTAQPSVDERRIRELLTLSFIDRKENILFLGPPGIGKTHLAISIGMEAIARGYKTYFITAHDLVNQLRRADQEGKLEKKLRVFVKPTVLIIDQMGYLKLDPNSAHYLFQVIARRYEHAPIILTSNKSFGEWGEIVGDSVLATAMLDRLLHHSIIFNLKGESYRLREKRLQEEKQKDQ",,10 and 20
